Measured values published in patent publication US20130273567A1, “Screening Method for Candidate Agonist Compounds for Adiponectin Receptor I” (priority 2010, published 2013).

Experiments:
[1] = Plasma adiponectin level after intravenous injection of adiponectin; type: in vivo; details: 30 μg per 10 g body weight intravenously through inferior vena cava catheter, mice
From the text: Mouse full-length adiponectin was generated as described in the following documents (Nature Med. 8, 1288-1295 (2002); Nature Med. 7, 941-946 (2001); Nature 423, 762-769 (2003)).

mAdipoR1 = target: T1, mAdipoR1 (Mus musculus, UniProt Q91VH1); assay: Xenopus oocytes injected with AdipoR1 cRNA, two-electrode voltage clamp recording; type: cell-based
T1 construct: expressed in transfected cells; host or cells: Xenopus oocytes (stage V to VII) injected with cRNA
T1 sequence (Q91VH1 1-375): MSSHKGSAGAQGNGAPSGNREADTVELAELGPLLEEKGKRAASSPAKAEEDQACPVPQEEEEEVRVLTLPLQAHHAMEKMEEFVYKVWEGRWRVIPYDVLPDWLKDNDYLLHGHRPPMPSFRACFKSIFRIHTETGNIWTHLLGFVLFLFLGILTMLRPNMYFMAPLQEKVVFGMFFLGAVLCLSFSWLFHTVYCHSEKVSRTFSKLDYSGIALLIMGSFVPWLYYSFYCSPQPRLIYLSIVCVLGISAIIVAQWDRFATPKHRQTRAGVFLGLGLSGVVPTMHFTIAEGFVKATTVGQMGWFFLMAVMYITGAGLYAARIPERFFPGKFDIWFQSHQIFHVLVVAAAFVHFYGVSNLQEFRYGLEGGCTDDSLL
Protocol: Stage V to VII oocytes were treated with 2 mg/ml of collagenase S-1 (Nitta gelatin) in calcium ion-free saline solution (82.5 mM NaCl, 2 mM KCl, 1 mM MgCl2, and 5 mM HEPES, pH 7.5) for 1 to 2 hr at room temperature. The resulting oocytes were then microinjected with 50 ng of cRNA for mAdipoR1. The cRNA was synthesized from linearized modified pSPUTK. The injected oocytes were incubated for 3 days at 18° C. in a bath solution (88 mM NaCl, 1 mM KCl, 0.3 mM Ca(NO3)2, 0.4 mM CaCl2, 0.8 mM MgSO4, 2.4 mM NaHCO3, 15 mM HEPES, pH 7.6) supplemented with 10 μg/ml of penicillin and streptomycin.
Whole cell currents were recorded with a two-electrode voltage clamp technique. Intracellular glass electrodes were filled with 3M KCl. Signals were amplified with an OC-725C amplifier (Warner Instruments), low-pass filtered at 50 Hz, and digitized at 1 kHz. A control bath solution contained 115 mM NaCl, 2.5 mM KCl, 1.8 mM CaCl2, and 10 mM HEPES. It was titrated to pH 7.2 with NaOH. A calcium ion free solution containing 1.8 mM BaCl2 instead of CaCl2 was used. The inward current was monitored at a holding potential of −80 mV. Calcium ion activated Cl^− current was monitored by applying 500-mscc depolarizing pulses of +100 mV and +50 mV from the holding potential of −80 mV. Adiponectin was supplied to the superfusing bath solution via a silicon tube connected to computer-driven solenoid valves. Data acquisition and analysis were carried out using Digidata 1322A and pCLAMP software.

CaMKI, HDAC5 = assay: Phosphorylation of CaMKI and HDAC5 in C2C12 myocytes (immunoblotting); type: cell-based, mouse; details: adiponectin 30 μg/ml, 0-20 min
Protocol: The mouse C2C12 myoblasts were grown in 90% Dulbecco's modified high glucose Eagle's medium containing 10% (v/v) fetal bovine serum. When the cells reached 80% confluent, the myoblasts were induced to differentiate into myocytes by replacing the medium with a low serum differentiation medium (98% Dulbecco's modified high glucose Eagle's medium, 2.5% (v/v) horse serum). The medium was changed daily. The C2C12 cells were transfected by using Pofectamine 2000 (Invitrogen) and following the manufacturer's instructions.

AdipoR1 [2] = target: T2, AdipoR1 (Mus musculus, UniProt Q91VH1); assay: Patch clamp test, whole-cell current of C2C12 myocytes; type: cell-based; set-up: endogenous in cells; host or cells: mouse C2C12 myocytes (differentiated from myoblasts); details: holding potential -60 mV, adiponectin 30 μg/ml 30 sec
T2 sequence (Q91VH1 1-375): T1 sequence (Q91VH1 1-375)
Protocol: Whole-cell currents were amplified with a patch-clamp amplifier (CEZ-2400; Nihon Kohden) and were digitized with a PowerLab digitizer (AD Instruments). Ringer's solution was used for the extracellular solution. The electrode solution contained 140 mM KCl, 10 mM HEPES, 5 mM EGTA-2K, and 10 mM D-glucose (pH 7.4). The data were low-pass filtered at 2 kHz and were sampled at 20 kHz. Ligands dissolved in Ringer's solution were applied at least twice with a self-made pressure-ejection system and via a two-barreled glass capillary.

AdipoR1 [3] = target: T2, AdipoR1; assay: Calcium imaging in skeletal muscle (soleus, fura-2); type: cell-based, mice; set-up: from tissue; host or cells: soleus muscle of control (Adipor1 lox/lox) and muscle-R1KO mice; details: adiponectin 30 μg/ml
Protocol: From 8-10 weeks-old mice, soleus muscles were dissected. Preparations were treated with 5 μM fura-2/AM in the presence of 0.1% Chremophore EL (Sigma) for 15 min. Fluorescence images were acquired using an inverted fluorescence microscopy (IX71, Olympus) equipped with a cooled charge-coupled device (CCD) camera (iXon, Andor) and a dry objective lens (10×, NA=0.3, Olympus) through a filter set consisting of a 327-353 nm and 369-391 nm excitation filter, a 409 nm dichroic mirror, and a 515-560 nm fluorescent filter. Ligands were supplied using the superfusing Ringer's solution (150 mM NaCl, 4 mM KCl, 2.0 mM CaCl2, 1.0 mM MgCl2, 30 mM D-glucose, 5 mM HEPES (pH 7.4)).

calcium-ion activated Cl- current response (mAdipoR1; control oocytes (no AdipoR1 cRNA), adiponectin 30 μg/ml): not observed
inward current responses (mAdipoR1; oocytes expressing AdipoR1, holding potential -80 mV, adiponectin 30 μg/ml 30 sec): induced
intracellular calcium levels by calcium-ion activated Cl- current (mAdipoR1; oocytes injected with AdipoR1 complementary RNA, adiponectin 30 μg/ml): increase
whole-cell inward current responses (AdipoR1 [2]): observed
intracellular calcium ion concentration in soleus muscle (fura-2) (AdipoR1 [3]; control mice): increased
calcium responses of soleus muscle to adiponectin (AdipoR1 [3]; muscle-R1KO mice): almost completely disappeared
B1: adiponectin: recombinant murine full-length adiponectin, internal ligand of adiponectin receptor 1 (protein, UniProt Q60994 1-247, looked up)
chain: MLLLQALLFLLILPSHAEDDVTTTEELAPALVPPPKGTCAGWMAGIPGHPGHNGTPGRDGRDGTPGEKGEKGDAGLLGPKGETGDVGMTGAEGPRGFPGTPGRKGEPGEAAYVYRSAFSVGLETRVTVPNVPIRFTKIFYNQQNHYDGSTGKFYCNIPGLYYFSYHITVYMKDVKVSLFKKDKAVLFTYDQYQEKNVDQASGSVLLHLEVGDQVWLQVYGDGDHNGLYADNVNDSTFTGFLLYHDTN
modifications: full-length
plasma adiponectin levels [1]: approximately 30 μg/ml
CaMKI phosphorylation (CaMKI, HDAC5): rapid, robust, and transient increase
HDAC5 phosphorylation (CaMKI, HDAC5): increased
